Source: US20160068609A1

What was measured:
[1] = target: Fc receptors on primary human blood cells: granulocytes (CD66+); experiment: flow cytometry on human blood cells (Example 7)
[2] = target: Fc receptors on primary human blood cells: NK cells (CD16+CD56+); experiment: flow cytometry on human blood cells (Example 7)
[3] = target: Fc receptors on primary human blood cells: granulocytes (CD66+); experiment: flow cytometry on human granulocytes (CD66+)

Substance	percent of granulocytes bound [1] [%]	percent of NK cells bound [2] [%]	percent of granulocytes bound [3] [%]
Fuc+ cetuximab (high fucose anti-EGFR antibody cetuximab produced in mouse myeloma cell line SP2/0)	< 5	< 5	–
Fuc- cetuximab (low fucosylation variant of cetuximab; reduced fucose anti-EGFR antibody according to the invention)	–	–	100
control antibody having an Fc glycosylation pattern similar to that of Fuc- cetugex (including a similarly low fucosylation)	–	–	20
